Assay results as given in patent US20160195541A1.
“And” between values parts separate entries of the source, which are not always exact repeats. Equal values may be shown once.

Experiments:
[1] = molecular target: membrane-bound human FcγRIIB on Raji cells (human) (UniProt P31994); experiment: FACS on Raji cells, aggregated Beriglobin at 2.5 (µg/µL)
[2] = molecular target: membrane-bound human FcγRIIB on Raji cells (human) (UniProt P31994); experiment: FACS on Raji cells, aggregated Beriglobin at 5.0 (µg/µL)
[3] = molecular target: membrane-bound human FcγRIIB on Raji cells (human) (UniProt P31994); experiment: FACS on Raji cells (FACS007), constant aggregated IgG; competitor SM101 0.5 µg/µL
[4] = molecular target: membrane-bound human FcγRIIB on Raji cells (human) (UniProt P31994); experiment: FACS on Raji cells (FACS021), constant aggregated IgG; no competitor (IMP series)
[5] = molecular target: membrane-bound human FcγRIIB on Raji cells (human) (UniProt P31994); experiment: FACS on Raji cells (FACS007), constant aggregated IgG; competitor SM101 0.0156 µg/µL
[6] = molecular target: membrane-bound human FcγRIIB on Raji cells (human) (UniProt P31994); experiment: FACS on Raji cells (FACS007), constant aggregated IgG; competitor SM101 0.0625 µg/µL
[7] = molecular target: membrane-bound human FcγRIIB on Raji cells (human) (UniProt P31994); experiment: FACS on Raji cells (FACS007), constant aggregated IgG; competitor SM101 0.03125 µg/µL
[8] = molecular target: membrane-bound human FcγRIIB on Raji cells (human) (UniProt P31994); experiment: FACS on Raji cells (FACS021), constant aggregated IgG; competitor SM101 IMP 0.25 µg/µL
[9] = molecular target: membrane-bound human FcγRIIB on Raji cells (human) (UniProt P31994); experiment: FACS on Raji cells (FACS007), constant aggregated IgG, anti-human IgG-PE; no competitor
[10] = molecular target: membrane-bound human FcγRIIB on Raji cells (human) (UniProt P31994); experiment: FACS on Raji cells (FACS021), constant aggregated IgG; competitor SM101 IMP 0.125 µg/µL
[11] = molecular target: membrane-bound human FcγRIIB on Raji cells (human) (UniProt P31994); experiment: FACS on Raji cells (FACS021), constant aggregated IgG; competitor SM101 IMP 0.0156 µg/µL
[12] = molecular target: membrane-bound human FcγRIIB on Raji cells (human) (UniProt P31994); experiment: FACS on Raji cells (FACS021), constant aggregated IgG; competitor SM101 IMP 0.03125 µg/µL
[13] = molecular target: membrane-bound human FcγRIIB on Raji cells (human) (UniProt P31994); experiment: FACS on Raji cells (FACS021), constant aggregated IgG; competitor SM101 Ref. Std. 0.25 µg/µL
[14] = molecular target: membrane-bound human FcγRIIB on Raji cells (human) (UniProt P31994); experiment: FACS on Raji cells, aggregated Beriglobin at 5.0 (µg/µL); mean of three batches
[15] = molecular target: membrane-bound human FcγRIIB on Raji cells (human) (UniProt P31994); experiment: FACS on Raji cells (FACS021), constant aggregated IgG; competitor SM101 Ref. Std. 0.0078 µg/µL
[16] = molecular target: membrane-bound human FcγRIIB on Raji cells (human) (UniProt P31994); experiment: FACS on Raji cells (FACS021), constant aggregated IgG; competitor SM101 Ref. Std. 0.0156 µg/µL
[17] = molecular target: membrane-bound human FcγRIIB on Raji cells (human) (UniProt P31994); experiment: FACS on Raji cells (FACS021), constant aggregated IgG; competitor SM101 Ref. Std. 0.0625 µg/µL
[18] = molecular target: membrane-bound human FcγRIIB on Raji cells (human) (UniProt P31994); experiment: FACS on Raji cells (FACS021), constant aggregated IgG; competitor SM101 Ref. Std. 0.03125 µg/µL
[19] = molecular target: membrane-bound human FcγRIIB on Raji cells (human) (UniProt P31994); experiment: FACS: 0.1E6 Raji cells (FcγRIIB) with 2.5 µg aggregated Beriglobin at the stated pH; 1/200 anti-human IgG(H+L)-PE; secondary antibody alone in this panel 173
[20] = molecular target: membrane-bound human FcγRIIB on Raji cells (human) (UniProt P31994); experiment: FACS: 0.1E6 Raji cells (FcγRIIB) with 2.5 µg aggregated Beriglobin at the stated pH; 1/200 anti-human IgG(H+L)-PE; secondary antibody alone in this panel 173; pH 6.5
[21] = molecular target: membrane-bound human FcγRIIB on Raji cells (human) (UniProt P31994); experiment: FACS: 0.1E6 Raji cells (FcγRIIB) with 2.5 µg aggregated Beriglobin at the stated pH; 1/200 anti-human IgG(H+L)-PE; secondary antibody alone in this panel 173; pH 6.7
[22] = molecular target: membrane-bound human FcγRIIB on Raji cells (human) (UniProt P31994); experiment: FACS: 0.1E6 Raji cells (FcγRIIB) with 2.5 µg aggregated Beriglobin at the stated pH; 1/200 anti-human IgG(H+L)-PE; secondary antibody alone in this panel 173; pH 7.2
[23] = molecular target: membrane-bound human FcγRIIB on Raji cells (human) (UniProt P31994); experiment: FACS on Raji cells (FcγRIIB) with constant aggregated Beriglobin and no CSA; detected with anti-human IgG(H+L)-PE; secondary antibody alone (SM101_sek AK.fcs) has median 137
[24] = molecular target: membrane-bound human FcγRIIB on Raji cells (human) (UniProt P31994); experiment: FACS: 0.1E6 Raji cells (FcγRIIB) with 2.5 µg aggregated Beriglobin at the stated pH; 1/200 anti-human IgG(H+L)-PE; secondary antibody alone in this panel 142
[25] = molecular target: membrane-bound human FcγRIIB on Raji cells (human) (UniProt P31994); experiment: FACS: 0.1E6 Raji cells (FcγRIIB) with 2.5 µg aggregated Beriglobin at the stated pH; 1/200 anti-human IgG(H+L)-PE; drawn table, secondary antibody control not subtracted; pH 6.5

UniProt P31994, sequence (P31994 43-310): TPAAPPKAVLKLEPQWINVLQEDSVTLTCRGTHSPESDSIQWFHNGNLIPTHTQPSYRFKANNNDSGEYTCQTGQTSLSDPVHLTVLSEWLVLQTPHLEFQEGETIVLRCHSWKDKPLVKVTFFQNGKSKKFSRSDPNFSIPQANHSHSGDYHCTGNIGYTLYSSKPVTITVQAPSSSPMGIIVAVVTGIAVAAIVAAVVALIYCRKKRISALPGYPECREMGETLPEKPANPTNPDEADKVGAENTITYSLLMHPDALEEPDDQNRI

Substance: aggregated human IgG (aggregated Beriglobin, aggregated fraction isolated by size exclusion chromatography) (antibody)
- Median MFI [1]: 1350 and 1500 and 1000
- Median MFI [2]: 1230 and 1140 and 960
- Median Signal [3]: 238
- Median Signal [4]: 6930
- Median Signal [5]: 2270
- Median Signal [6]: 466
- Median Signal [7]: 1240
- Median Signal [8]: 281
- Median Signal [9]: 3880
- Median Signal [10]: 478
- Median Signal [11]: 3810
- Median Signal [12]: 1780
- Median Signal [13]: 269
- Median MFI (mean) [14]: 1110
- Median Signal [15]: 5230
- Median Signal [16]: 2330
- Median Signal [17]: 921
- Median Signal [18]: 1640
- Median MFI at pH 7.0 (left panel) [19]: 599
- Median MFI at pH 7.8 (left panel) [19]: 363
- Median MFI at pH 8.0 (left panel) [19]: 348
- Median MFI at pH 6.5 (left panel) [20]: 703
- Median MFI at pH 6.7 (left panel) [21]: 578
- Median MFI at pH 7.2 (left panel) [22]: 561
- Median PE-A fluorescence, 0 µg/µL CSA [23]: 3480
- Median MFI at pH 7.0 (right panel) [24]: 866
- Median MFI at pH 8.0 (right panel) [24]: 316
- Median MFI at pH 8.5 (right panel) [24]: 246
- Median MFI at pH 9.0 (right panel) [24]: 244
- Median MFI at pH 10 (right panel) [24]: 177
- Median MFI at pH 6.5 [25]: 703
